The test has as its target CHIKV nsP2 protease (Chikungunya virus). Put plainly: BLI.

Take pantinin-1 (peptide): the Kd is 9.29 µM.

The values above are taken from publication doi:10.1101/2025.06.29.662183.
